Target: Candida albicans cell surface hemoglobin receptor (Candida albicans)
Assay: cell-based or functional assay

hemoglobin
Renilla luciferase activity driven by the CaHMX1 promoter in C. albicans strain CAMP Ki-29, iron-sufficient medium, within 2.5 min of Hb addition: > 10 fold

From US20050209305A1
